Test results from article PMC12857291.

Columns and labels:
[1] = target: MeCP2-MBD aromatic cage mutants, W104, F132, Y141, F142 and F155 to alanine (group as printed for the range of KD limits); experiment: ITC; MicroCal PEAQ-ITC, 15 °C, 750 rpm; peptide (1.5 to 2 mM) in the syringe injected into protein (80 to 100 μM) in the cell; 50 mM HEPES pH 7.5, 200 mM NaCl, 5% glycerol; single-binding site model
[2] = target: MeCP2-MBD domain wild-type, C-terminal 6xHis-tagged (UniProt P51608); experiment: as above
MeCP2-MBD domain wild-type, C-terminal 6xHis-tagged, sequence (P51608 90-162): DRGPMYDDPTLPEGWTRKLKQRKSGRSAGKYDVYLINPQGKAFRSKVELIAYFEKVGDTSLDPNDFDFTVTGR

Work on “histone H3(15-36)K27me3 peptide (from UniProt P68431 16-37)” yielded a Kd [1] of over 1000 µM and a Kd [2] of 5.2 µM.
